# In patent publication US20020107174A1, “COMPOSITION COMPRISING ENDOTOXIN NEUTRALIZING PROTEIN AND DERIVATIVES AND USES THEREOF” (priority 1998, published 2002):
# Tests used:
# [1] = system: Propionibacterium acnes, ATCC No. 11827; experiment: Zone inhibition assay; assay type: cell-based; conditions: 4 mm disc treated with 10 μl (Limulus ENP 1 mg/ml; benzoyl peroxide 0.05%), overnight at 37° C.
# Experimental: The inhibitory effect of a recombinant Limulus ENP (i.e., that expressed from the fusion protein II construct discussed above) was tested against Propionibacterium acnes, the bacterium that causes acne, using a zone inhibition assay. Petri dishes were filled with sterile nutrient agar following standard microbiological procedures. The nutrient agar-filled dishes were allowed to cool and harden before being inoculated with test bacteria. Using a sterile swab, the surface of the petri dishes were inoculated with a culture of Propionibacterium acnes, ATCC No. 11827, that had grown overnight at 37° C.
# Sterile filter paper discs (4 mm, Whatman) were treated with 10 μl of aqueous solutions of (1) recombinant Limulus ENP at a concentration of 1 mg/ml (the test sample); (2) benzoyl peroxide at a concentration of 0.05% (the positive control); or (3) sterile saline (the negative control). Benzoyl peroxide serves as a positive control because it is known to inhibit the growth of Propionibncterium acnes.
# The treated filter paper discs were placed on the inoculated plates and the plates incubated overnight at 37° C. The Limulus ENP disc produced a zone of inhibition having a diameter of 4-5 mm. The benzoyl peroxide disc produced a zone of inhibition having a diameter of 10-11 mm. The negative control disc produced no zone of inhibition.
# Bortadella sp. = experiment: Growth inhibition of Bortadella sp., optical density; conditions: GMS alone
# Experimental: An LAL 5000 spectrophotometer (Associates of Cape Cod) was used to monitor optical density changes over time when bacteria were grown in sterilized Luria broth (LB). The LAL 5000 can accommodate up to 32 individual 10×75 mm glass test tubes in its circular array. Automated temperature control was maintained at 37° C. for these experiments. LB was placed into sterile, oven depyrogenated glass test tubes. […] Other gram-negative (E. coli strains Rosenbergii sp., K12, X10, HB101, Shewanella sp., Bortadella sp.) and gram-positive bacteria (e.g., S. aureus, and Bacillus spp.) were grown in this manner and changes in optical density were monitored over time. The optical density data was collected, stored and analyzed by computer which was interfaced with the LAL 5000.
# The tubes were then inoculated with cells from a log phase culture of Bortadella sp. Optical density of each tube was monitored via method described above.
# E. coli strain 25303 = experiment: Growth inhibition of E. coli in Luria broth, optical density (LAL 5000); assay type: cell-based
# Experimental: E. coli cells were cultured overnight at 37° C. in LB. Aliquots were diluted 1:100 in fresh LB (control). LB plus PMB was serially diluted from 0.25 μg/ml to 0.001 μg/ml. LB plus Limulus ENP was formulated at concentrations from 20 to 0.07,μg/ml. Optical density of the cell culture was recorded at 410 nm during the course of the experiment.
# The tubes were then inoculated with cells of a log phase E. coli culture.
# TET was serially diluted with LB in ten-fold increments from 10 μg/ml to 0.0001 μg/ml.
# E. coli cells were cultured overnight at 37° C. in LB. Aliquots of the culture were diluted 1:100 in fresh LB as controls. Test samples consisted of cells in: LB plus AMP at 2.5 μg/ml; LB plus Limulus ENP at 25 and 5 μg/ml; and combination of 2.5 μg/ml AMP and either 2.5 or 5.0 μg/ml Limulus ENP. Optical density of the cell samples was recorded at 410 nm during the course of the experiment.
# E. coli endotoxins = conditions: rabbits, cited from earlier work
# E. coli cultures = experiment: Endotoxin levels in antibiotic-inhibited cultures, Limulus amebocyte lysate (LAL) assay; assay type: cell-based
# Experimental: Antibiotic-inhibited gram-negative bacteria release endotoxins into the medium. […] E. coli cultures treated with antibiotic alone or in combination with Limulus ENP were prepared and incubated as described in Sections 6.3.1 and 6.3.2, above. The endotoxin levels present in the cultures were measured using the standard Limulus amebocyte lysate (LAL) assay.
# meningococcal endotoxins = conditions: rabbits, cited from earlier work
# [2] = system: Pool 5 (Fungi): Aspergillus niger; experiment: Preservative challenge of oil in water emulsion, plate count, Pool 5; assay type: cell-based; conditions: 0.01% (weight/volume) in emulsion, eight week period
# Experimental: (§1) The cell numbers of the pools were quantitated by serial dilution. That is, the number of viable cells was determined by taking an aliquot from the sample, diluting it and culturing it so that colonies arising from individual cells could be counted.
# (§2) An oil in water emulsion was prepared comprising the following ingredients:
# (§3) To test its antimicrobial activity, Limulus ENP was added to the emulsion to achieve a concentration of about 0.01 weight percent, with appropriate adjustment of distilled water. Control and Limulus ENP-containing emulsions were inoculated with 10^8 viable cells from each of the five microorganism pools. The number of viable microbial cells was determined by plate count at the time of the initial inoculating, and at weekly intervals up to 8 weeks. After obtaining an aliquot for cell count at Week 3, microbes were re-inoculated to initial levels. The weekly cell counts are shown in Table 5 as logs of the cell number.
# [3] = system: uncharacterized gram-positive bacterium isolated from marine organisms; experiment: Growth inhibition of gram-positive bacterium from marine organisms, optical density at 410 nm; assay type: cell-based; conditions: Limulus ENP at 2.5 or 5 μg/ml
# Experimental: An uncharacterized gram-positive bacterium isolated from marine organisms was cultured overnight at 37° C. in LB. Aliquots of the culture were diluted 1:100 in fresh LB as controls. Test samples consisted of cells in LB plus LimulusENP at 2.5 or 5.0 μg/ml. The control and Limulus ENP-treated cultures were incubated at 37° C. Optical density of the cultures was recorded at 410 nm during the course of the experiment to monitor the growth of the gram-positive bacterium.
# endotoxins = experiment: Biological activity of recombinant Limulus ENP from S. cerevisiae; conditions: from pCGS965-transformed S. cerevisiae
# Text: In one yeast expression system, an expression construct encoding the aforementioned fusion protein I was inserted into an autonomous replicating plasmid yielding pCGS965 (FIG. 9). This plasmid, in turn, was used to transform S. cerevisiae strain 2470. pCGS965 carries the gene for uracil production, which complements the host strain's auxotrophy for this base. Recombinant Limulus ENP has been expressed, purified, and characterized from pCGS965-transformed cells grown at the 500 liter scale. Fusion protein I was expressed and correctly processed, and the Limulus ENP secreted into the medium. The recombinantly produced Limulus ENP has biological activity identical to that of ENP isolated from Limulus amebocytes.
# [4] = system: Pool 4 (Yeast): Candida parapilosis, C. albicans; experiment: Preservative challenge of oil in water emulsion, plate count, Pool 4; assay type: cell-based; conditions: 0.01% (weight/volume) in emulsion, eight week period
# Experimental: as §1, §2, §3
# human macrophages = conditions: cited from earlier work
# [5] = system: Escherichia coli endotoxin; conditions: rats; cited from earlier work
# [6] = system: rough gram-negative bacteria; conditions: cited from earlier work
# murine splenocytes = conditions: cited from earlier work
# human endothelial cells = conditions: cited from earlier work
# [7] = system: endotoxins or lipid A from gram-negative bacteria; conditions: ENP added in excess; cited from earlier work
# [8] = system: encapsulated strain of E. coli; conditions: rats, cited from earlier work
# E. coli = conditions: rabbits; cited from earlier work
# [9] = compared with anti-endotoxin antibody HA-1A
molecule,measurement,setting,value
"O=C(OOC(=O)c1ccccc1)c1ccccc1 [benzoyl peroxide, reference compound]","zone of inhibition, diameter",[1],10-11 mm
gentamycin sulfate [GMS],lowest effective concentration which almost totally inhibited the growth of Bortadella sp.,Bortadella sp.,10 µg/mL
same,effective concentration which substantially inhibits the growth of E. coli,"E. coli strain 25303; GMS alone, Luria broth",0.5 µg/mL
"polymixin B [PMB, reference compound]",inhibition of growth of E. coli,E. coli strain 25303; 0.06 μg/ml PMB alone,approximately 20%
same,lowest effective concentration which totally inhibited the growth of E. coli,"E. coli strain 25303; PMB alone, Luria broth",5 µg/mL
same,shock and mortality,"E. coli endotoxins; pretreatment with PMB, potent dose of E. coli endotoxins",effective in preventing shock and mortality
same,ENDOTOXIN LEVEL,E. coli cultures; E. coli cultures inhibited by PMB at 5 μg/ml,3.8 µg/mL
same,physiologic functions or mortality,meningococcal endotoxins; pretreatment with PMB alone,failed to improve
"Limulus ENP: the 11.8 kDa ENP from the horseshoe crab Limulus polyphemus; residues 5 to 105 of SEQ ID NO:2 or SEQ ID NO:5 (protein, listed as Limulus polyphemus) DGIWTQLIFTLVNNLATLWQSGDFQFLDHECHYRIKPTFRRLKWKYKGKFWCPSWTSITGRATKSSRSGAVEHSVRNFVGQAKSSGLITQRQAEQFISQYN",effect on the fungus Aspergiltus niger,[2],limited fungal growth
same,growth of the gram-positive bacterium,[3],effectively inhibited
same,biological activity compared with ENP isolated from Limulus amebocytes,endotoxins,identical
same,killing and re-growth of the yeasts Candida parapilosis and Candida albicans,[4],effective at killing and preventing the re-growth
same,"effect of serum proteins on biological activity, antimicrobial properties and endotoxin binding activity",E. coli cultures; serum-containing media,did not adversely affect
same,"zone of inhibition, diameter",[1],4-5 mm
"ENP: protein found in horseshoe crab amebocyte lysates that binds and neutralizes the biological activity of endotoxins (protein, listed as Limulus polyphemus) DGIWTQLIFTLVNNLATLWQSGDFQFLDHECHYRIKPTFRRLKWKYKGKFWCPSWTSITGRATKSSRSGAVEHSVRNFVGQAKSSGLITQRQAEQFISQYN",endotoxin induction of release of tumor necrosis factor by human macrophages,human macrophages,inhibit
same,protection against lethal Escherichia coli endotoxin challenge,[5],protective
same,growth of rough gram-negative bacteria,[6],inhibits the growth
same,endotoxin induction of mitogenesis of murine splenocytes,murine splenocytes,inhibit
same,endotoxin induction of activation of human endothelial cells,human endothelial cells,inhibit
same,endotoxin activity in the mixture,[7],greatly reduced
same,physiological functions and survival rate,E. coli endotoxins; 2.5 or 5 mg/kg before lethal endotoxin challenges,significantly improved
same,survival rates,E. coli endotoxins; administered 30 min. after endotoxin challenge,improved survival rates
same,circulating endotoxin concentrations,[8]; [9],significantly lower
same,survival rates,[8]; [9],improved survival rates
same,lethal effect of endotoxins released by the infecting E. coli,"[8]; dose of 50 mg/kg, also when administered after endotoxin had circulated",blocked the lethal effect
same,survival rate with E. coli sepsis,[8],improve the survival rate
same,physiological functions and survival rate,meningococcal endotoxins; administered 30 minutes after meningococcal endotoxin challenges,significantly improved
same,protection against lethal meningococcal challenge,meningococcal endotoxins,protective
same,survival rate with E. coli sepsis,E. coli,improve the survival rate
